Source: patent EP0980526B1 (IMPERIAL CANCER RESEARCH TECHNOLOGY LIMITED, dated 1998)

Biological target: T1, SRC1a-M1234 (human, UniProt Q15788 1-1441, [35S]-labelled)
T1 construct: range 1-1441; also called mutant SRC1
Experiment: GST pulldown, +/- 10^-6 M E2

T1 sequence (Q15788 other isoform, or with tags, fused parts or gaps limits assumed): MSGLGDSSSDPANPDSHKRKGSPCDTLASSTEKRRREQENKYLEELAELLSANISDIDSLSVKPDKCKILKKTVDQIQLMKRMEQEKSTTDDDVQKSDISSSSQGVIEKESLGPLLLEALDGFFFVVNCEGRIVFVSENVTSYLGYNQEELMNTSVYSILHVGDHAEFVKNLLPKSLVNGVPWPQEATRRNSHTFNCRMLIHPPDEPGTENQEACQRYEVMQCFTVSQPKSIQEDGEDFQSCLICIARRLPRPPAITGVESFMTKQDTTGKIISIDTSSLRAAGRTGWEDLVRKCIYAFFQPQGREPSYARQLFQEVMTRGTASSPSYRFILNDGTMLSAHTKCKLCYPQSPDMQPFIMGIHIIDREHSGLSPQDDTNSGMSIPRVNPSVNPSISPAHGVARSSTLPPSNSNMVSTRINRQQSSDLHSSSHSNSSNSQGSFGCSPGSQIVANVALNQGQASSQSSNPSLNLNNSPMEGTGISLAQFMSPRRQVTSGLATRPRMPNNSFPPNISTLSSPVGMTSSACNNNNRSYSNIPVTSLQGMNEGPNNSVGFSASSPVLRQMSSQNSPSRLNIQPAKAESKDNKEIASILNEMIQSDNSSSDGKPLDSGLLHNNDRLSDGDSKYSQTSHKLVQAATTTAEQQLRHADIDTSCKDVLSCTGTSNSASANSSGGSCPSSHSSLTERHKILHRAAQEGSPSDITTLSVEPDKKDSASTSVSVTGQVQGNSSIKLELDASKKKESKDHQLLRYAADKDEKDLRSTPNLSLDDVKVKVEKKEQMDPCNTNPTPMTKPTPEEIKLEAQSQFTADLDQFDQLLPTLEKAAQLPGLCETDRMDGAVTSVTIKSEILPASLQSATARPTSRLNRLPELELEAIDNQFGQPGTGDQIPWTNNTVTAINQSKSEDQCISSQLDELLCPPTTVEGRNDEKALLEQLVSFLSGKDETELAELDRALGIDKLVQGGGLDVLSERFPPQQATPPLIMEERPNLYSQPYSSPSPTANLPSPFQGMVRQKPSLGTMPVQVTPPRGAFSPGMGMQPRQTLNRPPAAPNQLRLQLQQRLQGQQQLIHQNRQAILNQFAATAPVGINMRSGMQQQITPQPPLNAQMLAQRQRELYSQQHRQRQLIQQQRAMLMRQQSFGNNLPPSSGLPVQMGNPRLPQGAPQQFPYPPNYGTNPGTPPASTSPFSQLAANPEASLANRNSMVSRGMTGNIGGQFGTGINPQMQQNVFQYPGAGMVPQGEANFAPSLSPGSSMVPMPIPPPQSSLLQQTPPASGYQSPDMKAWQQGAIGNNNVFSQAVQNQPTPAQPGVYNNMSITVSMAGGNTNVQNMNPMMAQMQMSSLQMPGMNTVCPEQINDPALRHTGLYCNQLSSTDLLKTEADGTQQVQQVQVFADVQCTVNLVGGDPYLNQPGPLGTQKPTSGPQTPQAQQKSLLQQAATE

B1: GST-AF2 (ligand binding domain of the mouse estrogen receptor fused to glutathione-S-transferase) (receptor, UniProt P19785 313-599, looked up)
chain: SLTADQMVSALLDAEPPMIYSEYDPSRPFSEASMMGLLTNLADRELVHMINWAKRVPGFGDLNLHDQVHLLECAWLEILMIGLVWRSMEHPGKLLFAPNLLLDRNQGKCVEGMVEIFDMLLATSSRFRMMNLQGEEFVCLKSIILLNSGVYTFLSSTLKSLEEKDHIHRVLDKITDTLIHLMAKAGLTLQQQHRRLAQLLLILSHIRHMSNKGMEHLYNMKCKNVVPLYDLLLEMLDAHRLHAPASRMGVPPEEPSQTQLATTSSTSAHSLQTYYIPPEAEGFPNTI
notes: range 313-599; Loaded on glutathione beads; tested with or without 10^-6 M E2; also called ER LBD; not shown: glutathione-S-transferase (GST)
binding result: no binding
